Measured values from publication PMC6212398, “Competing protein-protein interactions regulate binding of Hsp27 to its client protein tau” (Nature Communications, 2018).

Experiments:
Hsp27 ΔNTD GPG (human) = Hsp27 ΔNTD GPG (human) (UniProt P04792); experiment: ITC; peptide (1 mM) titrated into a cell with Hsp27 proteins (100 µM); SEC buffer (50 mM sodium phosphate, 100 mM NaCl); 25 °C; one-site binding model
[1] = target: Hsp27 GPG (isoleucine and valine of the IPV motif mutated to glycine) (human) (UniProt P04792); experiment: as above

Kd (Hsp27 ΔNTD GPG (human)): 14.3 µM
Kd [1]: 10 µM
stoichiometry N [1]: 0.2
Binder: EITIPVTHE [Hsp27 IPV H peptide (…)]
